This note sets out measurements from PMC7969025.

Data set [1] has as its target T1, H1-NTD (hybrid binding domain) (UniProt O60930 27-73).
T1 chain: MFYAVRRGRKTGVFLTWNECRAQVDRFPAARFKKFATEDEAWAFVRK
Briefly: thermal shift.

In a further data set the target is T2, P54nrb (UniProt Q15233 1-471).
T2 sequence: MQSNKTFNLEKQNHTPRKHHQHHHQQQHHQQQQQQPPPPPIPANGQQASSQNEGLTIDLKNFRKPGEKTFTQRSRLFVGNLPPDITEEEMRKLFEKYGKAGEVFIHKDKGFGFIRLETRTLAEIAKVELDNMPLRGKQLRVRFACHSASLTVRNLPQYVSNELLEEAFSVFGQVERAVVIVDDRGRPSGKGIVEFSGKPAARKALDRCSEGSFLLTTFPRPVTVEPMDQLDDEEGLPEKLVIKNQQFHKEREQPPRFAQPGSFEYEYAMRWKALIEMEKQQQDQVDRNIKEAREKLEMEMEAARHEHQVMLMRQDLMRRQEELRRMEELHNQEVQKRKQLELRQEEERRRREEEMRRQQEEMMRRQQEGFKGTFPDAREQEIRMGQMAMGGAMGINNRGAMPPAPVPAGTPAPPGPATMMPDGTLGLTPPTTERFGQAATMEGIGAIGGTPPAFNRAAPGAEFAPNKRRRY
In words: thermal shift.

GCTAGCCTCTGGATTT (XNA, PS; 3-10-3 2'-F gapmer) [760614 3-10-3 F PS-ASO]: the binding result in data set [1] was “binds”.

In the case of CTGCTAGCCTCTGGATTTGA (XNA, PS; 5-10-5 2'-F gapmer) [404130 5-10-5 F PS-ASO], the binding result with P54nrb is “binds”.
